# Data reported in publication PMC7099567, “Enzymatic Synthesis of 2-Keto-3-Deoxy-6-Phosphogluconate by the 6-Phosphogluconate-Dehydratase From Caulobacter crescentus” (Frontiers in Bioengineering and Biotechnology, 2020).
# B1: 6-phosphogluconate dehydratase/Entner-Doudoroff dehydratase (EDD) from Caulobacter crescentus (enzyme, UniProt A0A0H3CB86 1-602, looked up)
# chain: MSLNPVIADVTARIVARSKDSRAAYLANMDRAIENQPGRAKLSCANWAHAFAASPGVDKLRALDPNAPNIGIVSAYNDMLSAHQPLEAYPALIKDAARDVGATAQFAGGVPAMCDGVTQGRPGMELSLFSRDVIAMATAVALTHDAFDSALYLGVCDKIVPGLVIGALTFSHLPALFVPAGPMTSGLPNSEKARIRALYAEGKVGREELLAAESASYHGPGTCTFYGTANTNQMLMELMGFHLPGSAFVHPNTPLREALVKESARRVAAVTNKGNEFIPVGRMIDEKSFVNGVVGLMATGGSTNLALHIIAMAAAAGVQLTLEDLDDISKATPLLARVYPNGSADVNHFQAAGGMAFVIRELLKAGLVHEDVQTIAGAGLSLYAKEPVLEDGMLTWRDGAHESLDPAIVRPVSDPFSKEGGLRLMAGNLGRGVMKISAVKPEHHVIEAPCAVFQEQEDFIAAFKRGELDRDVVVVVRFQGPSANGMPELHNLSPSISVLLDRGHKVALVTDGRMSGASGKTPAAIHVTPEAAKGGPLAYVQDGDVIRVNAETGELKIMVDEATLLARTPANVPASKPGFGRELFGWMRSGVGAADAGASVFA
# notes: Homodimer by size exclusion chromatography (130 kDa native, 63.2 kDa by SDS-PAGE); also called CcEDD; 6PG dehydratase; source: E. coli BL21 (DE3), pET15b, purified (Ni-TED)
# Assays:
# [1] = target: the molecule itself; assay: SEC; HiLoad 26/60 Superdex 200 prep grade; buffer C (50 mM HEPES/KOH, 300 mM NaCl, 5 mM MnCl, pH 8); isocratic flow 2 ml min^-1; native mass compared with the subunit mass from SDS-PAGE
# purified protein = substrate: O=C(O)[C@H](O)[C@@H](O)[C@H](O)[C@H](O)COP(=O)(O)O; assay: purified protein; assay type: biochemical, Caulobacter vibrioides; conditions: 100 mM HEPES pH 8.0, 37 C, 0.2 mM NADH, enzyme purified and stored with 5 mM MnCl2
protein,measurement,setting,value
B1,stoichiometry N,[1],2
same,Km,purified protein,0.3 mM
